Data on 10 molecules can be found in patent publication US20220332824A1 (published 2022).

One assay addresses human PD-1 (human, UniProt Q15116 25-288). As to the kind of experiment: FACS binding, CHO-K1 cells expressing human PD-1. For orientation: A flow cytometer gives signals particle by particle.
A further assay deals with CD47 (UniProt Q08722 19-323). Put plainly: FACS.
CD47, sequence (Q08722 19-323): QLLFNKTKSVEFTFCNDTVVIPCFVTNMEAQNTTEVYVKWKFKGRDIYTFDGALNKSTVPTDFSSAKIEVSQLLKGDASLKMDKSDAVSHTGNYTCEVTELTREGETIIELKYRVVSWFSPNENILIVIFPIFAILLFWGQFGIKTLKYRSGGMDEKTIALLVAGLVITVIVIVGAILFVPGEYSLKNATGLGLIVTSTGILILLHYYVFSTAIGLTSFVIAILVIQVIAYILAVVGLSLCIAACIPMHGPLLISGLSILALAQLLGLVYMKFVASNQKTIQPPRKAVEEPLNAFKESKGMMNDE

human PD-1, sequence (Q15116 25-288): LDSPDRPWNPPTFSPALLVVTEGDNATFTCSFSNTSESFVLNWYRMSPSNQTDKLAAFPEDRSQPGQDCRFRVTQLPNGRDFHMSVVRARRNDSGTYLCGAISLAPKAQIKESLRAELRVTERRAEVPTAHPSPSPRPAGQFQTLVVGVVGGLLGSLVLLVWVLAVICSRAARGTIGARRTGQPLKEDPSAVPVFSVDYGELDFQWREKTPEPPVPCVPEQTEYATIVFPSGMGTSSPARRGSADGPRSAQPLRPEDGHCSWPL

B1: bispecific antibody PD1b-E-HN (bispecific antibody)
heavy: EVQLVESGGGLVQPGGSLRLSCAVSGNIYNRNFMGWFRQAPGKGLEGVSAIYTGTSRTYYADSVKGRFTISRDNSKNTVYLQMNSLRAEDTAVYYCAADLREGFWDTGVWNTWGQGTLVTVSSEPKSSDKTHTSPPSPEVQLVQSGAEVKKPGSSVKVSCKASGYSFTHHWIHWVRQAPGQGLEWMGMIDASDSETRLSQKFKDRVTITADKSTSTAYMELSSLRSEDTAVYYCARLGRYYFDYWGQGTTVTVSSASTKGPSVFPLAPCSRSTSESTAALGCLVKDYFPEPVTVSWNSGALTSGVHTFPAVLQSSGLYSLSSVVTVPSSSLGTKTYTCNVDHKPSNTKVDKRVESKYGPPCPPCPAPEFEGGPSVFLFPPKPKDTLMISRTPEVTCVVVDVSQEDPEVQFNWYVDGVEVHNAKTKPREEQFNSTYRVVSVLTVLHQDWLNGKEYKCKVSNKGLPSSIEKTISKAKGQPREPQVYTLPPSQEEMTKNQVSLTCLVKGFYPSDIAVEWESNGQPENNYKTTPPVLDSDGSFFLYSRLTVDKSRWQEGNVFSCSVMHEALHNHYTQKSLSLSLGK
light: EIVLTQSPATLSLSPGERATLSCRASENVGTYISWYQQKPGQAPRLLIYGASNRYTGIPARFSGSGSGTDFTLTISSLEPEDFAVYYCGESYGHLYTFGGGTKVEIKRTVAAPSVFIFPPSDEQLKSGTASVVCLLNNFYPREAKVQWKVDNALQSGNSQESVTEQDSKDSTYSLSSTLTLSKADYEKHKVYACEVTHQGLSSPVTKSFNRGEC
In the case of B1, the EC50 (commonly the concentration that produces a half-maximal response) in the assay with human PD-1 worked out at 2.82 nM; with CD47, 1.78 nM.

B2: bispecific antibody PD1a-G15-HC (bispecific antibody)
heavy: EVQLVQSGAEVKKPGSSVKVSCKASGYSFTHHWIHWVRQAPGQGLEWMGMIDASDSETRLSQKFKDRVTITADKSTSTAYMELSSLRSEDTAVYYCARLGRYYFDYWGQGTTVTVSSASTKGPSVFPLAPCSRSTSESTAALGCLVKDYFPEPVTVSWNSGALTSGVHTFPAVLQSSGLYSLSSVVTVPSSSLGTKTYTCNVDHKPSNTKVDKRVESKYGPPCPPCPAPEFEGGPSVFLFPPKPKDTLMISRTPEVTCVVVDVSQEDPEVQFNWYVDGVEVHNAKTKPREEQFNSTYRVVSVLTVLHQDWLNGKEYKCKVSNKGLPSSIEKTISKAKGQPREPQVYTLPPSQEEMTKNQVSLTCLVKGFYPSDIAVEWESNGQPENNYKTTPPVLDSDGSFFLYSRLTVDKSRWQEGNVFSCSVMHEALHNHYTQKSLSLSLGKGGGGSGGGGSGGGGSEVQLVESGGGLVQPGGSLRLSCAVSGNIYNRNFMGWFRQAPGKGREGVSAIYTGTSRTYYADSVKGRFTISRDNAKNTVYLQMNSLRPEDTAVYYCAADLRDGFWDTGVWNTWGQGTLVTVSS
light: EIVLTQSPATLSLSPGERATLSCRASENVGTYISWYQQKPGQAPRLLIYGASNRYTGIPARFSGSGSGTDFTLTISSLEPEDFAVYYCGESYGHLYTFGGGTKVEIKRTVAAPSVFIFPPSDEQLKSGTASVVCLLNNFYPREAKVQWKVDNALQSGNSQESVTEQDSKDSTYSLSSTLTLSKADYEKHKVYACEVTHQGLSSPVTKSFNRGEC
Turning to B2, the EC50 with human PD-1 was 4.75 nM; in the assay with CD47, 0.968 nM.

B3: bispecific antibody PD1b-E-HC (bispecific antibody)
heavy: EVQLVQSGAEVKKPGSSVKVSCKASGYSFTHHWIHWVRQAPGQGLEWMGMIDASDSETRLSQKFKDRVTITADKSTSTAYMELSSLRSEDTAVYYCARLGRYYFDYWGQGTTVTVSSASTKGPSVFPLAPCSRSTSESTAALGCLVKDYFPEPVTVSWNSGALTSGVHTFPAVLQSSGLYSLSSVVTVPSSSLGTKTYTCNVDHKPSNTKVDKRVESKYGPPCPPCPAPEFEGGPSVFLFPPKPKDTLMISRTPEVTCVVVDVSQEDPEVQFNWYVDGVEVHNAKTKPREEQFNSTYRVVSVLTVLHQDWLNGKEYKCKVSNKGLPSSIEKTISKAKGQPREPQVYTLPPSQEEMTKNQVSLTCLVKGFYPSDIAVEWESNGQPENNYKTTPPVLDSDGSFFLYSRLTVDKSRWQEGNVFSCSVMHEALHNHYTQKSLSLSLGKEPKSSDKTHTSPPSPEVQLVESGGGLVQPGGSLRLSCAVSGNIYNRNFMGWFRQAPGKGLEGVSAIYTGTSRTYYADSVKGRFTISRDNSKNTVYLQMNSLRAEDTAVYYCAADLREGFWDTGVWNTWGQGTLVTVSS
light: EIVLTQSPATLSLSPGERATLSCRASENVGTYISWYQQKPGQAPRLLIYGASNRYTGIPARFSGSGSGTDFTLTISSLEPEDFAVYYCGESYGHLYTFGGGTKVEIKRTVAAPSVFIFPPSDEQLKSGTASVVCLLNNFYPREAKVQWKVDNALQSGNSQESVTEQDSKDSTYSLSSTLTLSKADYEKHKVYACEVTHQGLSSPVTKSFNRGEC
Take B3: the 50% effective concentration (EC50) with human PD-1 was found to be 3.25 nM; with CD47, 0.804 nM.

B4: bispecific antibody PD1a-E-HN (bispecific antibody)
heavy: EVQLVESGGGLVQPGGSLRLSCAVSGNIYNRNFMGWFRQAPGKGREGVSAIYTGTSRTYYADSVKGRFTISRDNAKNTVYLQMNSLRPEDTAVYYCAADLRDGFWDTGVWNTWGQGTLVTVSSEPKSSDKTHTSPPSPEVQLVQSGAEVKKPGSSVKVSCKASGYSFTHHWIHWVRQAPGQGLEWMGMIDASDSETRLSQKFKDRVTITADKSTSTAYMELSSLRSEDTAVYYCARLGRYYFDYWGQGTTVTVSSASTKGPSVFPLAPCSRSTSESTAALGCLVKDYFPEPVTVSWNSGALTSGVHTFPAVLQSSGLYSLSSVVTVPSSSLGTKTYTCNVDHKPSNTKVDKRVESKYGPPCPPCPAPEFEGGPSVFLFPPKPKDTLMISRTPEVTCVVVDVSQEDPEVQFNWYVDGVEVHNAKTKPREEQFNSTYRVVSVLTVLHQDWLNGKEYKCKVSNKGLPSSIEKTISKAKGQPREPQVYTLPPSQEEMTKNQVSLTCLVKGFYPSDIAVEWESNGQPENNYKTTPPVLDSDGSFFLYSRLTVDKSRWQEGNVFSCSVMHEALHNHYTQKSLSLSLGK
light: EIVLTQSPATLSLSPGERATLSCRASENVGTYISWYQQKPGQAPRLLIYGASNRYTGIPARFSGSGSGTDFTLTISSLEPEDFAVYYCGESYGHLYTFGGGTKVEIKRTVAAPSVFIFPPSDEQLKSGTASVVCLLNNFYPREAKVQWKVDNALQSGNSQESVTEQDSKDSTYSLSSTLTLSKADYEKHKVYACEVTHQGLSSPVTKSFNRGEC
As for B4, the EC50 stood at 4.15 nM in the assay with human PD-1 and 1.41 nM in the assay with CD47.

B5: bispecific antibody PD1a-E-HC (bispecific antibody)
heavy: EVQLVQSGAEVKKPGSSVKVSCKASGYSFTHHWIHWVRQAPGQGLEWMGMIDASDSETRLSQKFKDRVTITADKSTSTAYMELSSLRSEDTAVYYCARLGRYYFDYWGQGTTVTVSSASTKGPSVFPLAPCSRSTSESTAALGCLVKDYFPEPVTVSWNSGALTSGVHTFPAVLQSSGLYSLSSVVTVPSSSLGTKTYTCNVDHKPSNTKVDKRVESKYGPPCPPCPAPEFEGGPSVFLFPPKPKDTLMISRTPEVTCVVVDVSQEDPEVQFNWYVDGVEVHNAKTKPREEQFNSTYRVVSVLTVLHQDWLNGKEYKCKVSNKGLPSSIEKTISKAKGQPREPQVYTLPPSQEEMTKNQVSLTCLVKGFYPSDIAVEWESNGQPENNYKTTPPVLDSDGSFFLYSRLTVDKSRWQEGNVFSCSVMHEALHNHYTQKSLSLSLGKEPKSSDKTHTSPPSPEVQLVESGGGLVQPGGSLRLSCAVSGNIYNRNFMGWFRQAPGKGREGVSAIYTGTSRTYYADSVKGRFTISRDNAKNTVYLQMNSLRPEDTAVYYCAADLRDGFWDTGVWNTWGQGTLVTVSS
light: EIVLTQSPATLSLSPGERATLSCRASENVGTYISWYQQKPGQAPRLLIYGASNRYTGIPARFSGSGSGTDFTLTISSLEPEDFAVYYCGESYGHLYTFGGGTKVEIKRTVAAPSVFIFPPSDEQLKSGTASVVCLLNNFYPREAKVQWKVDNALQSGNSQESVTEQDSKDSTYSLSSTLTLSKADYEKHKVYACEVTHQGLSSPVTKSFNRGEC
In the case of B5, the 50% effective concentration (EC50) with human PD-1 worked out at 2.6 nM; with CD47, 1.09 nM.

B6: bispecific antibody PD1a-E-LC (bispecific antibody)
heavy: not shown
light: EIVLTQSPATLSLSPGERATLSCRASENVGTYISWYQQKPGQAPRLLIYGASNRYTGIPARFSGSGSGTDFTLTISSLEPEDFAVYYCGESYGHLYTFGGGTKVEIKRTVAAPSVFIFPPSDEQLKSGTASVVCLLNNFYPREAKVQWKVDNALQSGNSQESVTEQDSKDSTYSLSSTLTLSKADYEKHKVYACEVTHQGLSSPVTKSFNRGECEPKSSDKTHTSPPSPEVQLVESGGGLVQPGGSLRLSCAVSGNIYNRNFMGWFRQAPGKGREGVSAIYTGTSRTYYADSVKGRFTISRDNAKNTVYLQMNSLRPEDTAVYYCAADLRDGFWDTGVWNTWGQGTLVTVSS
Molecule B6 yielded an EC50 with human PD-1 of 7.74 nM.

B7: bispecific antibody PD1b-E-LC (bispecific antibody)
heavy: not shown
light: EIVLTQSPATLSLSPGERATLSCRASENVGTYISWYQQKPGQAPRLLIYGASNRYTGIPARFSGSGSGTDFTLTISSLEPEDFAVYYCGESYGHLYTFGGGTKVEIKRTVAAPSVFIFPPSDEQLKSGTASVVCLLNNFYPREAKVQWKVDNALQSGNSQESVTEQDSKDSTYSLSSTLTLSKADYEKHKVYACEVTHQGLSSPVTKSFNRGECEPKSSDKTHTSPPSPEVQLVESGGGLVQPGGSLRLSCAVSGNIYNRNFMGWFRQAPGKGLEGVSAIYTGTSRTYYADSVKGRFTISRDNSKNTVYLQMNSLRAEDTAVYYCAADLREGFWDTGVWNTWGQGTLVTVSS
Consider B7, for which the midpoint of the response in the assay with human PD-1, the EC50, lay at 2.34 nM.

B8: anti-CD47 monoclonal antibody (heavy chain H0 and light chain L0) (antibody, V domains shown)
VH: EVQLVQSGAEVKKPGSSVKVSCKASGYSFTHHWIHWVRQAPGQGLEWMGMIDASDSETRLSQKFKDRVTITADKSTSTAYMELSSLRSEDTAVYYCARLGRYYFDYWGQGTTVTVSS
VL: EIVLTQSPATLSLSPGERATLSCRASENVGTYISWYQQKPGQAPRLLIYGASNRYTGIPARFSGSGSGTDFTLTISSLEPEDFAVYYCGESYGHLYTFGGGTKVEIKR
Consider B8, for which the results for the concentration for a half-maximal effect (EC50) with human PD-1 and with CD47 were about 4.44 nM and 1.46 nM, respectively.

B9: bispecific antibody PD1a-E-LN (bispecific antibody)
heavy: not shown
light: EVQLVESGGGLVQPGGSLRLSCAVSGNIYNRNFMGWFRQAPGKGREGVSAIYTGTSRTYYADSVKGRFTISRDNAKNTVYLQMNSLRPEDTAVYYCAADLRDGFWDTGVWNTWGQGTLVTVSSEPKSSDKTHTSPPSPEIVLTQSPATLSLSPGERATLSCRASENVGTYISWYQQKPGQAPRLLIYGASNRYTGIPARFSGSGSGTDFTLTISSLEPEDFAVYYCGESYGHLYTFGGGTKVEIKRTVAAPSVFIFPPSDEQLKSGTASVVCLLNNFYPREAKVQWKVDNALQSGNSQESVTEQDSKDSTYSLSSTLTLSKADYEKHKVYACEVTHQGLSSPVTKSFNRGEC
B9 showed an EC50 with human PD-1 of 3.69 nM.

B10: bispecific antibody PD1b-E-LN (bispecific antibody)
heavy: not shown
light: EVQLVESGGGLVQPGGSLRLSCAVSGNIYNRNFMGWFRQAPGKGLEGVSAIYTGTSRTYYADSVKGRFTISRDNSKNTVYLQMNSLRAEDTAVYYCAADLREGFWDTGVWNTWGQGTLVTVSSEPKSSDKTHTSPPSPEIVLTQSPATLSLSPGERATLSCRASENVGTYISWYQQKPGQAPRLLIYGASNRYTGIPARFSGSGSGTDFTLTISSLEPEDFAVYYCGESYGHLYTFGGGTKVEIKRTVAAPSVFIFPPSDEQLKSGTASVVCLLNNFYPREAKVQWKVDNALQSGNSQESVTEQDSKDSTYSLSSTLTLSKADYEKHKVYACEVTHQGLSSPVTKSFNRGEC
Molecule B10 came in with an EC50 in the assay with human PD-1 of 3.02 nM.
